# Data as given in US12364733B1, “Method for treating septic shock” (Inotrem, priority 2018, dated 2025).
# Experiment: Blood nangibotide concentrations by LC-MS/MS (pharmacokinetics, phase IIa trial)
# Assay type: in vivo, human
# Experimental: Blood nangibotide concentrations were determined by a validated LC-MS/MS method in accordance with European Medicines Agency (EMA) guidelines on bioanalytical method validation EMEA/CHMP/EWP/192217/2009, version EMA/275542/2014. The peptide was stabilized in the blood samples by treatment with a 10% trichloroacetic acid solution ([…], 4° C.) and centrifugation (3500 g, 10 min, 4° C.) to collect and freeze the supernatant before analysis. The lower limit of quantification (LLOQ) and upper limit of quantification (ULOQ) were 5 ng/mL and 1000 ng/mL respectively. Standard curve was linear over the range 5 ng/mL to 1000 ng/mL with a correlation coefficient greater than 0.995. Within-run and between-run precision and accuracy within +/−20% LLOQ and +/−15% (other levels up to ULOQ) were achieved during a 3-run validation for quality controls (QCs) for nangibotide.
substance,measurement,setting,value
nangibotide (LQEEDAGEYGCM; TLT-1 peptide),nangibotide blood concentration versus dose,"0.3, 1.0, 3.0 mg/kg/h",proportional with the dose
same,clearance after the end of infusion,"human, in vivo",quickly cleared
same,pharmacokinetics / blood concentrations compared with healthy volunteers,in vivo,within the same range previously observed in healthy volunteers
same,pharmacokinetic behavior during intravenous infusion,"in vivo, iv",linear behavior
